Among the data in a protein production outcome set (Wang et al. 2014) are protein production values, retold here.

This data set in a line: label from the status in PepcDB records.
On to “MSLIMITAEMVPPDLLIKRLAIYLKENVKTVDPPEWALLAKTASFKERVPDNAEDWWYIRAASLLRKLYVNSIIGIEKTRTIYGGRKRRGTRPEKFVKAPGHVNRLIFQQLEKAGLVQKIKNKGRSLSPKGRSLLDKLALEIFKELAENNTSLKVYLELEHHHHHH”, for which the protein production result is listed as “not failed”.

“MSLISFAPHSGVWLLTTPHTSYALRIDASGAPCHLAWGPRLTLAAAEELAVPEPPAASSFEGRPSVGEELPVDGGVRYGPPSLQVRFADGSRAFEWQPTGHRVHESADGAHELVLFFRDRRYPLQVALHYRVRADTDVIERWTVVRNGGDEPVTLLRADSAAWTLPPLADYRLSHVTGQWSAESRLRRDRLPYGETVLTSRRGITSHHTNPWLMVDSGEATEDHGRVWSAALAWSGSWRITTQRTPDGRTGFTGGVGHDGTGVPLTPGEEFTAPAFAGLFTADGFGAASRAWHAYTLAHVLPHPDEPVPVLYNSWEATGFDVDEVGQKALAERAAALGVELYVVDDGWFGGRRSDRAGLGDWTPAPDRFPDGLGPLADRVRELGMRFGLWVEPEMVNPDSDLYRAHPDWVLHLPDRSRSELRNQLVLNFARRDVADWAYGWLTELVGAHRIDFLKWDMNRAFSEAGWPGQQDGADRLGTQYVRHLYGVIDRLRADHPGLRIESCSGGGGRIDLGILGRTDQTWASDNTDAADRLWIQHGFSQIYPARTMGCWVTDAPNQFTGRGLPLRFRFHAAMAGALGIGGDLARWSEEELREGAALVTEYKKVRHLVQHGRLDRLSPPSGQSPAVVQYTSADGSESLVLAWRGVPRPGDADLPVRLRALTPAARYRDSRTGTVHHASVLGDYGLRLDLPAGDWSSVAMHLVREPEAV”: the protein production result is listed as “failed”.

“MSLIVITGASSGLGAELAKLYDAEGKATYLTGRSESKLSTVTNCLSNNVGYRARDLASHQEVEQLFEQLDSIPSTVVHSAGSGYFGLLQEQDPEQIQTLIENNLSSAINVLRELVKRYKDQPVNVVMIMSTAAQQPKAQESTYCAVKWAVKGLIESVRLELKGKPMKIIAVYPGGMATEFWETSGKSLDTSSFMSAEDAALMIHGALANIGNGYVSDITVNREGHHHHHH”: the protein production entry is recorded as “not failed”.

As to “MSLKFDFSNLFEPNISGGLTDEDVKSVEEKVTSAVRNFVENTPDFAKLDRSWIDSVKSLEDWIINFDTVVVLGIGGSGLGNLALHYSLRPLNWNEMTREERNGYARVFVVDNVDPDLMSSVLDRIDPKTTLFNVISKSGSTAEVMATYSIARGILEAYGLDPREHMLITTDPEKGFLRKLVKEEGFRSLEVPPGVGGRFSVLTPVGLLSAMAEGIDIDELHEGAKDAFEKSMKENILENPAAMIALTHYLYLNKGKSISVMMAYSNRMIYLVDWYRQLWAESLGKRYNLKGEEVFTGQTPVKALGATDQHSQIQLYNEGPNDKVITFLRVENFDREIVIPETGRAELSYLARKKLSELLLAEQTGTEEALRENNRPNMRVTFDGLTPYNVGQFFAYYEAATAFMGYLLEINPFDQPGVELGKKITFALMGREGYTYEIKERSKKVIIE”, the protein production result is given as “not failed”.

In the case of “MSLKGKRIGFGFTGSHCTYEEVMPHLEKLIAEGAEVRPVVSYTVQSTNTRFGEGAEWIKKIEEITGFKAINSIVGAEPLGPKIPLDCMVIAPLTGNSMSKFANAMTDSPVLMAAKATLRNGKPVVLAVSTNDALGLNGVNLMRLMATKNIYFVPFGQDAPEKKPNSMVARMELLEDTVLEALQGKQLQPVVVEKFRYMNLEHHHHHH”, the protein production result was “not failed”.

Take “MSLKGLRRLVLDVLKPHEPKTIVFALKLSELENVDGVNIHLSEIDQATENIKITILGNNLDYEQIKGVIEDMGGVIHSVDEVVAGKIIVESVEGHHHHHH”: the protein production entry is “not failed”.

For the sequence “MSLKHVVVIGAVALGPKAACRFKRLDPEAHVTMIDQASRISYGGCGIPYYVSGEVSNIESLQATPYNVVRDPEFFRINKDVEALVETRAHAIDRAAHTVEIENLRTGERRTLKYDKLVLALGSKANRPPVEGMDLAGVTPVTNLDEAEFVQHAISAGEVSKAVIVGGGFIGLEMAVSLADMWGIDTTVVELADQIMPGFTSKSLSQMLRHDLEKNDVVVHTGEKVVRLEGENGKVARVITDKRTLDADLVILAAGVSPNTQLARDAGLELDPRGAIIVDTRMRTSDPDIFAGGDCVTIPNLVTGKPGFFPLGSMANRQGRVIGTNLADGDATFPGAVGSWAVKLFEGSASGAGLTVEGALREGYDAVNVHVEQFDRAHFYPEKTIMTLQLVVDRPTRRVLGIQGFSTLGDALTARINAVATMLASKPTVEDISNAEVVYSPPFASAMDIVNVAGNVADNVLAGREGHHHHHH”, the protein production result is on record as “not failed”.

Take “MSLKIIDFRLRPPAMGFLNARIYTRPDIRNRFTRQLGFEPAPSAEEKSLELMFEEMAAAGIEQGVCVGRNSSVLGSVSNADVAAVAKAYPDKFHPVGSIEAATRKEAMAQMQEILDLGIRIVNLEPGVWATPMHVDDRRLYPLYAFCEDNGIPVIMMTGGNAGPDITYTNPEHIDRVLGDFPDLTVVSSHGNWPWVQEIIHVAFRRPNLYLSPDMYLYNLPGHADFIQAANSFLADRMLFGTAYPMCPLKEYTEWFLTLPIKPDAMEKILHGNAERLLAQAGREGHHHHHH”: the protein production entry is reported as “not failed”.

Turning to “MSLKITDVDVWVVNLPLVNPFTSSFETKTGETRTVVRVRTDSGVEGWGETMWGAPVAAIVRRMAPDLIGTSPFALEAFHRKQHMVPFFYGYLGYAAIAAVDVACWDAMGKATGQSVTDLLGGAVRDEVPITALITRADAPGATPADLPKAMAEHAVRVVEEGGFDAVKLKGTTDCAGDVAILRAVREALPGVNLRVDPNAAWSVPDSVRAGIALEELDLEYLEDPCVGIEGMAQVKAKVRIPLCTNMCVVRFEDFAPAMRLNAVDVIHGDVYKWGGIAATKALAAHCETFGLGMNLHSGGELGIATAAHLAVVSSTPVLSRAIDSMYYLHADDIIEPLHLENGRLRVPSGPGLGVSVDEDKLRHYAGVNERDGDLTGEGHHHHHH”, the protein production result was “not failed”.

For the sequence “MSLKLTPEAAGTFAIAPTPFHDDGKIDDVSIDRLTDFYAEVGCEGVTVLGILGEAPKLDAAEAEAVATRFIKRAKSMQVIVGVSAPGFAAMRRLARLSMDAGAAGVMIAPPPSLRTDEQITTYFRQATEAIGDDVPWVLQDYPLTLSVVMTPKVIRQIVMDSASCVMLKHEDWPGLEKITTLRGFQKDGSLRPLSILCGNGGLFLDFEMERGADGAMTGYCFPDMLVDVVKLSKAGQRDLAHNLFDAHLPLIRYEHQQGVGLSVRKYVLKKRGLLSSSAQRKPGASLTDTAREEVDYLLSRLARVEGHHHHHH”, the protein production result is reported as “not failed”.

Regarding “MSLKNKFKNFFSLDDEEYEYEYIETDREEIPEEHESKDRTAYQSKAAGKQNVVSLQSVQKSSKVVLSEPRVYAEAQEIADHIKNRRAVVVNLQRIQHDQAKRIVDFLSGTVYALGGDIQRIGADIFLCTPENVDVSGTISELIEEEHQRW”, the protein production result was “failed”.

Consider “MSLKNMADLSYVNIFTRDIVAMSAFYQQVFGFQEIESIRSPIFRGLDTGKSCIGFNAHEAYELMQLAQFSETSGIKFLLNFDVDTKEAVDKLVPVAIAAGATLIKAPYETYYHWYQAVLLDPERNVFRINNVLEGHHHHHH”, for which the protein production entry was “not failed”.

As to “MSLKSLASIENWPVPTAAAGVVRADGTVLGTHGPAAHRFPLASVTKPLAAYAALVAYEEGAIELDEPAGPPGATVRHLLAHTSGLAFDEHRVTAPPGDRRLYSNAGFEQLGDHIAKAAEMPFAEYARQAVLEPLGMTATSLAGSPAKDGVSTVDDLLRFAAEVQAPRLLDPRTVAEAMTVQYPGTKGVLPGYGHQNPNDWGLGFEIRDGKSPHWTGAASSPRTFGHFGQSGTFLWIDPDAALACVSLTDRAFGPWAVEAWPPFTDGVLAEVRG”, the protein production result was “failed”.

Take “MSLKVQGYANVVTLPNVTGRVIIVGDIHGCRAQLEDLLRAVSFKQGSDTLVAVGDLVNKGPDSFGVVRLLKRLGAYSVLGNHDAKLLKLVKKLGKKECLKGRDAKSSLAPLAQSIPTDVETYLSQLPHIIRIPAHNVMVAHAGLHPQRPVDRQYEDEVTTMRNLIEKEQEATGGVTLTATEETNDGGKPWASMWRGPETVVFGHDARRGLQEQYKPLAIGLDSRCVYGGRLSAAVFPGGCIISVPGWNGASAAAEGHHHHHH”: the protein production result is “not failed”.

In the case of “MSLKYKLIVLDLDGTLTNSKKEISSRNRETLIRIQEQGIRLVLASGRPTYGIVPLANELRMNEFGGFILSYNGGEIINWESKEMMYENVLPNEVVPVLYECARTNHLSILTYDGAEIVTENSLDPYVQKEAFLNKMAIRETNDFLTDITLPVAKCLIVGDAGKLIPVESELCIRLQGKINVFRSEPYFLELVPQGIDKALSLSVLLENIGMTREEVIAIGDGYNDLSMIKFAGMGVAMGNAQEPVKKAADYITLTNDEDGVAEAIERIFNVEGHHHHHH”, the protein production result is recorded as “not failed”.

On to “MSLLIRELETNDLDNFPEIDDSFIVNARLMLSLSKVNRRIEYTVEDVPSYEKSYLQNDNEELVYNEYINKPNQIIYIALLHNQIIGFIVLKKNWNNYAYIEDITVDKKYRTLGVGKRLIAQAKQWAKEGNMPGIMLETQNNNVAACKFYEKCGFVIGGFDFLVYKGLNMTSDEVAIYWYLHFDS”, for which the protein production result was “failed”.

For the sequence “MSLLKNSSYILTLLSLFGFLLTWQRSAFSLFFLIPIFLTLFWEFFLFLKLRKNIIKEATLIKGSLFYRISMGDFYLYIFSFFLAIFGLVSLFLNFLNLEKIDFVFIFIILPLLMIFLKKELHLQFIDNAYNDFRIVVIASFFTALFYAFYGLFFTYNELLNLELFSRKIIAYKSASFVYFDFLSEFLHFVSNLKFFIFSYFGYLGFRALNFIFDFFNFFMFCSLLAFVFNFVLKIKIKIIVLFLCFIMVLGNYFLKEQRNNALKSEQEQILLWMNNFNFLKDNNLSLIQKEKDLFEKDLKDLREIFKKNAFEIGIWWFSKEKEDLEKRINESLK”, the protein production entry is listed as “failed”.

Regarding “MSLLSLLIALAADRSLSAKVWQFNFYYQHYHHFFSKNFTAKQGTTASAVFIILPVIATYLLLDVIDNSVLQLLFSTVILIVCFGCTTTRKSYKSYLHSAFRGEETTTEMHHEQLLSDKNLPEMGFGQALIWLNYRYYIAIMLFFTVFGAAGAVFYRLLTTVIEHKKAKCMASAAENKAQAEVSSVDESDIESEEHHQAVHEGNVAPNIMNGCQNHHDVLFWLDWLPVRIASFGYMFVGHFSKAMPVWLESLFDSQKPTHQVLIDVAEKSEDLLVNENDCTAEPCLLVRLAKRNVLLVLAVISILTLSGLLN”, the protein production entry is “failed”.

For the sequence “MSLMIKVEDMMTRHPHTLLRTHTLNDAKHLMEALDIRHVPIVDANKKLLGIVSQRDLLAAQESSLQRSAQGDSLAFETPLFEVMHTDVTSVAPQAGLKESAIYMQKHKIGCLPVVAKDVLVGIITDSDFVTIAINLLELQEESEPDELDEEQEGHHHHHH”, the protein production result is given as “not failed”.

With “MSLNGITKYVEKLTFFNIQSGKQVEFNRDEKVILSNVPFIQQLPELDRGCEVTSLAMMLQYAGITVDKMKLANEIKKVDFMNDGVRGNPNEGFVGNIYTFSESGYGVYHGPLFQLAKKYLPNKAVDLTGKSIEELYKSVKAGQPVVIITNATFAPLDEDEFTTWETNNGDVSITYNEHCVVLIGYDQESVYIRDPLKDSLDVKVPREKFEQAWVQMGSQAISYVKRSKEGHHHHHH”, the protein production result is given as “not failed”.

Take “MSLNGNGSIELKGTVEEVWSKLMDPSILSKCIMGCKSLELIGEDKYKADLQIGIAAVKGKYDAIIEVTDIKPPYHYKLLVNGEGGPGFVNAEGVIDLTPINDECTQLTYTYSAEVGGKVAAIGQRMLGGVAKLLISDFFKKIQKEIAKSKQEASEGHHHHHH”: the protein production entry was “not failed”.

On to “MSLNKQDGENTLQHEKSSSFGYWCSPSPEQLERLSLKQLAAVSNFVIGRRGYGCITFQHDVDLTAFTKSFREELFGKIVIFRSSKTVEVYPDEATKPMIGHGLNVPAIITLENVYPVDKKTKKPMKDTTKFAEFQVFDRKLRSMREMNYISYNPFGGTWTFKVNHFEGHHHHHH”, for which the protein production entry is “not failed”.

Turning to “MSLNRRELLERISEYQFACIELNLYLDNNPRDKKALDSYNRYCDKFTQAVCDYESKYGALTNFGYESSEYPWSWISEPWPWDKSFYKLEHHHHHH”, the protein production result was “not failed”.
